Test results reported in paper PMC9802395, “Intratumoral nanobody–IL-2 fusions that bind the tumor extracellular matrix suppress solid tumor growth in mice” (PNAS Nexus, 2022).
Read-outs that look alike come from different tables or passages of the source.

Key:
[1] = molecular target: T1, biotinylated EIIIB (protein fragment of fibronectin splice variant EIIIB) (Homo sapiens (sequence identical in …, UniProt P02751, strain, biotin (ChromaLink NHS-biotin reagent))); assay: BLI; biotinylated EIIIB immobilised on streptavidin tips (2 μg/mL); nanobody or IL-2 fusion as analyte, 0.1 to 350 nM; PBS with 0.05% Tween-20 and 1% recombinant human albumin; 1:1 binding model, global fit, double referencing; details: both partners purified
T1 construct: alternatively spliced EIIIB (EDB) domain of fibronectin; also called EDB; EIIIB domain of fibronectin

[2] = molecular target: T1, biotinylated EIIIB (protein fragment of …)
Target sequence in this assay (P02751 1266-1356, stated change not applied): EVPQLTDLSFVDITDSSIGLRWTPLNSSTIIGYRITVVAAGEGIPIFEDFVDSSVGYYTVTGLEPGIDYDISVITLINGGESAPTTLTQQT

| binding result [2] | Kd [1] [nM] | Binder | also measured |
| --- | --- | --- | --- |
| – | – | NJT6-IL2 (NJT6 nanobody fused to murine IL-2) (VHH, glycine–serine (G5S) linker; murine interleukin-2; size-matched control; also called untargeted IL-2; source: HEK293 cells, transfected, purified (TALON; some by SEC)) VHH: QVQLVETGGDLVQPGGSLRLSCAASGLTLDYYAIGWVRQAPGKEREGVSCITPQDGNTYYDDSVMGRFTILRDNAKNMVYLQMNNLKPEDTAVYFCAAAGALTLDPSEYEYWGQGTQVTVSS | binding result [1]: no binding (tested: 100 nM) |
| binds | – | LMJ1.2G (VHH) VHH: QVQLVETGGGLVQAGGSLRLSCAASGSTFSHSAGGWYRQAPEKQRELVAGIGSDGNINYADSVKDRFTISRDNASNTMYLQMNNLKPEDTAVYVCNIRGSYGNTYYSRWGQGTQVTVSS | – |
| binds | – | LMJ1.3J (VHH) VHH: QVQLVGTGGGLVQAGGSLRLSCAASGSTFSHSAGGWYRQAPEKQRELVAGISSAGNINYADSVKDRFTISRDNASNTMYLQMNNLKPEDTAVYVCNIRGSYGNTYYSRWGQGTQVTVSS | – |
| – | 2 | NJB2-IL2 (NJB2 nanobody fused to murine IL-2) (VHH, glycine–serine (G5S) linker; murine interleukin-2; about 32 kDa; source: HEK293 cells, transfected, purified (TALON; some by SEC)) VHH: QVQLVETGGGLVQAGGSLRLSCAASGSTFSHNAGGWYRQAPEKQRELVAGISSDGNINYADSVKDRFTISRDNASNTMYLQMNNLKPEDTAVYVCNIRGSYGNTYYSRWGQGTQVTVSS | – |
| – | 0.3 | LMJ1.2C nanobody, biotin-tagged (VHH, The text says the nanobodies for BLI were purified with C-terminal polyhistidine tags; source: E. coli WK6, periplasm, purified (Ni-NTA), then sortase-tagged with biotin; not shown: LPETG sortase motif, C-terminal, kept; His6, C-terminal, cleaved) VHH: QVQLVETGGGLVQAGGSLRLSCAASGSTFSHSAGGWYRQAPEKQRELVAGIRSDGNINYADSVKDRFTISRDNASNTMYLQMNNLKPEDTAVYVCNIRGSYGNTYYSRWGQGTQVTVSS | – |
| binds | – | LMJ2.6A (VHH) VHH: RVQLVETGGGLVQAGGSLRLSCAVSGRTFSHSAGGWYRQAPEKQRELVAGIRSDGNINYADSVKDRFTISRDNASNTMYLQMNNLKPGDTAVYVCNIRGSYGNTYYSRWGQGTQVTVSS | – |
| binds | – | LMJ2.5C (VHH) VHH: QVQLVETGGGLVQAGGSLRLSCAASGSTFSHSAGGWYRQAPEKQRELVAGVRSDGNINYADSVKDRFTISRDNASNTMYLQMNNLKPEDTAVYVCNIRGSYGNTYYSRWGQGIQVTVSS | – |
| binds | – | LMJ2.5J (VHH) VHH: QVQLVETRGGLVQAGGSLRLSCAVSGSTFSHSAGGWYRQAPEKQRELVAGIGSAGNINYADSVKDRFTISRDNASNTMYLQMNNLKPEDTAVYVCNIRGSYGNTYYSRWGQGTQVTVSS | – |
| – | 0.025 | LMJ2.5I nanobody, biotin-tagged (VHH, The text says the nanobodies for BLI were purified with C-terminal polyhistidine tags; source: E. coli WK6, periplasm, purified (Ni-NTA), then sortase-tagged with biotin; not shown: LPETG sortase motif, C-terminal, kept; His6, C-terminal, cleaved) VHH: RVQLVETGGGLVQAGGSLRLSCAVSGSTFSHSAGGWYRQAPEKQRELVAGIRSDGNINYADSVKDRFTISRDNASNTMYLQMNNLKPEDTAVYVCNIRGSYGNTYYSRWGQGAQVTVSS | – |
